In patent US20090075394A1:
pKd: −log10 of the molar value.

Target: Aeropyrum pernix KvAP voltage-dependent potassium channel (Aeropyrum pernix) (UniProt Q9YDF8)
Test: inhibition of KvAP channel currents by CTX, channels in planar lipid bilayers

Chain of Aeropyrum pernix KvAP voltage-dependent potassium channel (Aeropyrum pernix) (Q9YDF8 14-295): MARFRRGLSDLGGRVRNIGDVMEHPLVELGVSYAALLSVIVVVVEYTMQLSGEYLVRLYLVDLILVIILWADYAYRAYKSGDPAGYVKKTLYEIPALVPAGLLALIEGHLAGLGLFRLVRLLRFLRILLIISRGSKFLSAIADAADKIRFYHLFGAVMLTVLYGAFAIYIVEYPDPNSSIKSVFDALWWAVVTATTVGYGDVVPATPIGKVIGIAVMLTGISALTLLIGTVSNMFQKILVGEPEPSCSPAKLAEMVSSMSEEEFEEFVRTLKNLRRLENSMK

Question: With “charybdotoxin (from UniProt P13487 23-59) (peptide)” as the substance, how does the pKd read?
Answer: 3.40
